“Also recorded” adds a separate entry of the source. Starred links: 1 amine or outer side, 2 acyl side, 3 side chain; linkers in the order of their positions; H or OH if unused. Non-standard residues stand in square brackets, D forms with d. Residues, ends and D or L forms follow the SMILES beside them. *: point of attachment. Dolaproine = CO[C@@H]([C@@H]1CCCN1)[C@@H](C)C(=O)O; Dil = CC[C@H](C)[C@H](NC)[C@@H](CC(=O)O)OC; PABC = O=C(OCc1ccc(N[*:1])cc1)[*:2]; X1 = O=C(CCCC(=O)*)ON1C(=O)CCC1=O; X2 = C[C@@H](N*)[C@@H](O)c1ccccc1; Cit = NC(=O)NCCC[C@H](N)C(=O)O; NMeV = CN[C@H](C(=O)O)C(C)C
Assay: In vivo PK in PC-3 CDX model: LC-MS quantitation of MMAE and BT5528 in plasma and tumour (Example 4)
Set-up: species or system Mus Musculus
Settings: single i.v. dose of BT5528
Method: The objective of the research is to evaluate the in vivo PK/PD of test agents in treatment of PC-3 CDX model in Balb/c nude mice.
Each mouse was inoculated subcutaneously at the right flank with PC-3 tumor cells (10×10^6) in 0.2 mL of PBS for tumor development. The animals were randomized and dosed when the average tumor volume reached approximately 440 mm^3 for the PK/PD study. The test article administration and time points in each group were shown in the experimental design table.
Mice were randomly grouped based on tumor volume and dosed as experimental design. Plasma, serum, muscle and tumors were collected at 1 h, 2 h, 8 h, 24 h, 48 h, 72 h and 96 h post dosing.
Two protease inhibitor products were used: Complete™ mini EDTA-free protease inhibitor cocktail tablets and AEBSF (200 mM, prepared by dissolving 100 mg in water (2086 μL)). The AEBSF solution was stored at −20° C. when not in use. For the dilution of plasma, a solution (inhibitor solution A) was prepared by dissolving 12 Complete™ tablets in 50/50 methanol/water (12 mL) and adding 200 mM AEBSF (12 μL). […]
Samples, standards, QCs and blanks were transferred (10 μL diluted plasma, 30 μL tissue homogenate) to a 96-well plate on ice. […] The plate was mixed briefly and sealed ready for injection onto the LC-MS/MS. […]

CC[C@H](C)[C@@H]([C@@H](CC(=O)N1CCC[C@H]1[C@H](OC)[C@@H](C)C(=O)N[C@H](C)[C@@H](O)c1ccccc1)OC)N(C)C(=O)[C@@H](NC(=O)[C@H](C(C)C)N(C)C(=O)OCc1ccc(NC(=O)[C@H](CCCNC(N)=O)NC(=O)[C@@H](NC(=O)CCCC(=O)ON2C(=O)CCC2=O)C(C)C)cc1)C(C)C [BT5528] (X1-V[Cit][PABC][NMeV]V[Dil][Dolaproine]-X2)
MMAE concentrations in tumour: accumulation of MMAE in tumor tissue; also recorded: high MMAE concentrations in tumour, which is stable from 2h to >48h
exposure of BT5528 and MMAE in plasma: short systemic exposure; also recorded: transient exposure of both BT5528 and MMAE in plasma

Source: patent US20220184222A1, “BICYCLE TOXIN CONJUGATES AND USES THEREOF” (BicycleTx Limited, priority 2019, published 2022)
